Data as given in publication PMC6341043.
Several values for one entry are separate records, joined by “and”; a condition that tells them apart may be missing. Equal entries are not always repeated.

Tests used:
[1] = biological target: Jun (LexA fusion, positive control of the bacterial two-hybrid system); assay: two-hybrid; bacterial two-hybrid (LexA-WT and LexA-MUT fusions) in E. coli SU202; heterodimerization represses lacZ; quantitative beta-galactosidase activity against the strain with empty vectors pSR658 and pSR659, n = 3
[2] = biological target: TraM (TraR antiactivator) of plasmid pAoF64/95 (Agrobacterium spp. (plasmid pAoF64/95)); assay: as above

Row | Substance | fold lower beta-galactosidase activity than the empty-vector control strain [1] | fold lower beta-galactosidase activity than the empty-vector control strain [2]
1 | Fos (LexA fusion, positive control of the bacterial two-hybrid system) (natural protein) | 52 fold | –
2 | TmsPs (short form of TmsP, tra M sequestering protein, of plasmid pAoF64/95) (natural protein) | – | 2 fold and 3 fold
